# Experimental data as given in the RNAGym collection of RNA variant scans (doi:10.1073/pnas.2313332121).
# This sample holds only a part of the variants without activity.
# B1: TPR 5TU (parent)
# chain: GGAUCUUCUCGAUCUAACAAAAAAGACAAAUCUGCCACAAAGCUUGAGAGCAUCUUCGGAUGCAGAGGCGGCAGCCUUCGGUGGCGCGAUAGCGCCAACGUUCUCAACUAUGACACGCAAAACGCGUGCUCCGUUGAAUGGAGUUUAUCAUG
# Variants of: B1
# Experiment: polymerase ribozyme fitness, log enrichment relative to wild type (log ratio); higher = more active; in vitro selection for triplet polymerase activity
# Summary of the method: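 Frozen incubation at −7 °C formed the core of a single, triplicate in vitro selection round applied to PCR-built, transcribed mutant libraries of each subunit of a heterodimeric triplet polymerase ribozyme. Extended constructs were gel-excised, captured with streptavidin beads and amplified by RT-PCR, and input and output libraries were Illumina-sequenced with a filter of ≥10 input reads and ≥1 read per output. Fitness is the logarithm of genotype enrichment relative to wild-type enrichment, with inverse-variance-weighted replicate averaging, and the logarithm is base 2.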
row,Variant,polymerase ribozyme fitness (log ratio)
1,GGAUCUUCUCGAUCUAACAAAAAAGACAAAUCUGCCACAAAGCUUGAGAGCAUCUUCGGAUGCAGAGGCGGCAGCCUUCGGUGGCCCGAUAGCGCCAACGUUCUCAACUAUGACACGCAAAACGCGUGCUCCGUUGAAUGGAGUUUAUCAUG [G86C],-2.55
2,GGAUCUUCUCGAUCUAACAAAAAAGACAAAUCUGCCACAAAGCUUGAGAGCAUCUUCGGAUGCAGAGGCGGCAGCCUUCGGUGGCACGAUAGCGCCAACGUUCUCAACUAUGACAGGCAAAACGCGUGCUCCGUUGAAUGGAGUUUAUCCUG [G86A C116G A150C],-3.93
3,GGAUCUUCUCGAUCUAACAAAAAAGACAAAUCUGCCACAAAGCUUGAGAGCAUCUUCGGAUGCAGAGGCGGCAGCCUUCGGUGGCCCGAUAACGCCAACGUUCUCAACUAUGACACGCAAAACGCGUGCUCCGUUGAAUGGAGUUUAUCAUG [G86C G92A],≤ -4.2
4,GGAUCUUCUCGAUCUAACAAAAAAGACAAAUCUGCCACAAAGCUUGAGAGCAUCUUCGGAUGCAGAGGCGGCAGCCUUCGGUGGCCCGAUAGCGCCAACGUUCUCAACUAUGACACGCAAAACACGUGCUCCGUUGAAUGGAGAUUAUCAUG [G86C G124A U144A],-2.44
5,GGAUCUUCUCGAUCUAACAAAAAAGACAAAUCUGCCACAAAGCUUGAGAGCAUCUUCGGAUGCAGAGGCGGCAGCCUUCGGUGGCACGAUAGCGCCAACGUUGUCAACUAUGACACGCAAAACGCGUGCUCCGAUGAAUGGAGUUUAUCAUG [G86A C103G U134A],≤ -4.2
6,GGAUCUUCUCGAUCUAACAAAAAAGACAAAUCUGCCACAAAGCUUGAGAGCAUCUUCGGAUGCAGAGGCGGCAGCCUUCGGUGGCACGAUAGCGCCAACGUUCUCAACUGUGACACGCAAAACGCGUGCUCCGUUGAAUGGAGUAUAUGAUG [G86A A110G U145A C149G],≤ -4.2
7,GGAUCUUCUCGAUCUAACAAAAAAGACAAAUCUGCCACAAAGCUUGAGAGCAUCUUCGGAUGCAGAGGCGGCAGCCUUCGGUGGCACGAUAGCGCCAACGUUCUCAACUAUGACACGCAAAACGCGUGCUCCGUUGAAUGGAGUUUAUAAUG [G86A C149A],≤ -4.2
8,GGAUCUUCUCGAUCUAACAAAAAAGACAAAUCUGCCACAAAGCUUGAGAGCAUCUUCGGAUGCAGAGGCGGCAGCCUUCGGUGGCACGAUAGCGCCAACGUUCUCAACUAUGACACGCAAAACGCGUGCUCCGUUGAAUGGAGUUUAUCCUG [G86A A150C],≤ -4.2
9,GGAUCUUCUCGAUCUAACAAAAAAGACAAAUCUGCCACAAAGCUUGAGAGCAUCUUCGGAUGCAGAGGCGGCAGCCUUCGGUGGCACGAUAGCGCCAACGUUCUCAACUAUGACACGCAAAACGCGUGCUCCGUUGAAUGGAGUUUAUCGUG [G86A A150G],-3.09
10,GGAUCUUCUCGAUCUAACAAAAAAGACAAAUCUGCCACAAAGCUUGAGAGCAUCUUCGGAUGCAGAGGCGGCAGCCUUCGGUGGCACGAUAGCGCCAACGUUCUUAACUAUGACACGCAAAACGCGUGCUCCGUUGAAUGGAGUUUAUCAUG [G86A C105U],-0.138
11,GGAUCUUCUCGAUCUAACAAAAAAGACAAAUCUGCCACAAAGCUUGAGAGCAUCUUCGGAUGCAGAGGCGGCAGCCUUCGGUGGCACGAUAGCGCCAACGUUCUCAACUAUGACACGCAAAACGCGUGCUCCGUUGAAUGGCGUUUAUCAUG [G86A A142C],-2.27
12,GGAUCUUCUCGAUCUAACAAAAAAGACAAAUCUGCCACAAAGCUUGAGAGCAUCUUCGGAUGCAGAGGCGGCAGCCUUCGGUGGCACGAUAGCGCCAACGUUCUCAACUAUGACACGUAAAACGCGUGCUCCGUUGAAUGCAGUUUAUCAUG [G86A C118U G141C],-1.77
13,GGAUCUUCUCGAUCUAACAAAAAAGACAAAUCUGCCACAAAGCUUGAGAGCAUCUUCGGAUGCAGAGGCGGCAGCCUUCGGUGGCACGAUAGCGCCAACGUUCUCAACUAUGACACGCAAAGCGCGUGCUCCGUUGAAUGGAGUUUAGCAUG [G86A A122G U148G],≤ -4.2
14,GGAUCUUCUCGAUCUAACAAAAAAGACAAAUCUGCCACAAAGCUUGAGAGCAUCUUCGGAUGCAGAGGCGGCAGCCUUCGGUGGCCCGAUAGCGCCAACGUUCUUAACUAUGACACGCAAAACGCGUGCUCCGUUGAAUGGAGUUUAUCAUG [G86C C105U],-1.5
15,GGAUCUUCUCGAUCUAACAAAAAAGACAAAUCUGCCACAAAGCUUGAGAGCAUCUUCGGAUGCAGAGGCGGCAGCCUUCGGUGGCCCGAUAGCGCCAAGGUUCUCAACGAUGACACGCAAAACGCGUGAUCCGUUGAAUGGAGUUUAGCAUG [G86C C99G U109G C129A U148G],≤ -4.2
16,GGAUCUUCUCGAUCUAACAAAAAAGACAAAUCUGCCACAAAGCUUGAGAGCAUCUUCGGAUGCAGAGGCGGCAGCCUUCGGUGGCCCGAUAGCGCCAACGUUCUCAACUAUGACAUGCAAAACGCGUGCUCCGUUGAAUGGAGUUUAUCAUG [G86C C116U],-2.44
17,GGAUCUUCUCGAUCUAACAAAAAAGACAAAUCUGCCACAAAGCUUGAGAGCAUCUUCGGAUGCAGAGGCGGCAGCCUUCGGUGGCCCGAUAGCGCCACCGUUCUCAACUAUGACACGCAAAACGCGUGCUCCGUUGAAUGGAGUUUAUCAUG [G86C A98C],-1
18,GGAUCUUCUCGAUCUAACAAAAAAGACAAAUCUGCCACAAAGCUUGAGAGCAUCUUCGGAUGCAGAGGCGGCAGCCUUCGGUGGCCCGAUAGCGCCAACGUUCUCAACUAUGAUACGCAAAACGCGUGCUCCGUUGAAUGGAGUUUAUCAUG [G86C C114U],-3.9
19,GGAUCUUCUCGAUCUAACAAAAAAGACAAAUCUGCCACAAAGCUUGAGAGCAUCUUCGGAUGCAGAGGCGGCAGCCUUCGGUGGCAGGAUAGCGCCAACGUUCUCAACUAUGACACGCAAAACGCGUGCUCCGUUGAAUGGAGUUUAUCAUG [G86A C87G],-3.97
